Paper PMC9635285
“And” between values parts separate entries of the source, which are not always exact repeats. Equal values may be shown once.

How the values were obtained:
[1] = molecular target: subtilisin-digested microtubules (lacking E-hooks) (porcine) (UniProt P02550); assay: co-sedimentation
[2] = molecular target: Taxol-stabilised microtubules polymerised from porcine brain tubulin (porcine) (UniProt P02550); assay: co-sedimentation

Sequence of UniProt P02550 (P02550 whole entry, looked up): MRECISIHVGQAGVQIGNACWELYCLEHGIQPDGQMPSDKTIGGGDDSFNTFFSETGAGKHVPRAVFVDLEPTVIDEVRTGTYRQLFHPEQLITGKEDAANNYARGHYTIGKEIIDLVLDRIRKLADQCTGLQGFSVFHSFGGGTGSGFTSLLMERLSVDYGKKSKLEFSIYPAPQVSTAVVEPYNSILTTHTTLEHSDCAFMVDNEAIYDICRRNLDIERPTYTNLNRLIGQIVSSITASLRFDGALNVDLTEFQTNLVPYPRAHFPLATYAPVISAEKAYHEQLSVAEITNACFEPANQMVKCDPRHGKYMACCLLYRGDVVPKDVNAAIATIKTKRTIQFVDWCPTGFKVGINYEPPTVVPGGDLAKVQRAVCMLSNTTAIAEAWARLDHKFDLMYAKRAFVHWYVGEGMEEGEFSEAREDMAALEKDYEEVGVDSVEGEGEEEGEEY

Shift to pellet (%) [1]	Shift to pellet (%) [2]	Substance
26.7%	52.7% and 50.8%	KLP-18 C-stalk (C-terminal half of the KLP-18 stalk) (domain or fragment)
	56.1% and 41.6%	MBP-MESP-1 (natural protein)
